From US20060211075A1, “Enzyme sensors including environmentally sensitive or fluorescent labels and uses thereof” (The Albert Einstein College of Medicine of Yeshiva …, priority 2005, published 2006)
Non-standard residues stand in square brackets, D forms with d. Residues, ends and D or L forms follow the SMILES beside them. No end group written: not given here. *: point of attachment. Cascade Yellow = fluorophore from Cascade Yellow succinimidyl ester, attached to the Dab or Dap side chain; pY = N[C@@H](Cc1ccc(OP(=O)(O)O)cc1)C(=O)O; NBD = O=[N+]([O-])c1ccc(*)c2nonc12; Dab = NCC[C@H](N)C(=O)O; Dap = NC[C@H](N)C(=O)O

What was measured:
Src [1] = target: T1, Src (Homo sapiens, UniProt P12931); test: Vmax and Km of Src kinase-catalyzed phosphorylation at fixed Lck-SH2 (20 μM); assay type: biochemical; set-up: purchased Invitrogen; conditions: varying peptide
Method: (§1) The fluorescence change was monitored as a function of time. Control assays in the absence of Lck-SH2 were also performed.
The final Src concentration was 30 nM for peptide 13 and 15 nM for peptide 14.

GST-Lck-SH2 = target: T2, GST-Lck-SH2 (Homo sapiens, UniProt P06239); test: Fluorescence change as a function of Lck-SH2 concentration (Src-catalyzed phosphorylation); assay type: biochemical
T2 construct: made in house; host or cells: E. coli
Text: As is evident from Table 1, the dapoxyl fluorophore positioned off the +3 and +4 sites on the peptide substrate (Dap-5 and Dab-5) produce the largest changes in fluorescent behavior. Two peptides (13 and 14, FIG. 4) were examined in greater detail. Both peptides were resynthesized on the Rink resin and purified by HPLC. In addition, the phosphotyrosine version of 13 was enzymatically prepared. […] If the SH2 domain is responsible for the fluorescence change induced by Src kinase-catalyzed phosphorylation, then the Lck SH2 domain concentration should influence the observed fluorescence response. […] The reactions were initiated by the addition of ATP. When only buffer was added to “initiate” the reaction (i.e. no ATP), the fluorescence of the mixture remained unperturbed. Furthermore, in the absence of Lck SH2 domain, ATP addition to initiate the reaction furnished an exceedingly modest change in fluorescence intensity (<5%). By contrast, increasing concentrations of SH2 domain produced increasing enhancements in fluorescence intensity. Above an Lck SH2 concentration of 16 μM, the change in fluorescence intensity began to level off, which is in keeping with the notion that the interaction between phosphopeptide and Lck SH2 domain was approaching saturation. […] This appears to be a consequence of the —NH(CH2)2SH tail that is present on the library members (but not on the amide-capped peptides, as a consequence of the respective synthesis methods used).
as §1
The assay protocol described above was used to assess the effect of GST-Lck-SH2 concentration on the observed fluorescence associated with the phosphorylation of pure peptide 13 (30 nM Src) and peptide 14 (15 nM Src).

Src [2] = target: T1, Src; test: Assay of library: Src kinase-catalyzed phosphorylation of fluorophore-labeled peptides in presence of Lck-SH2, fluorescence change; assay type: biochemical; set-up: purchased Invitrogen; conditions: fluorophore attachment site +4; —NH2 derivative (in parentheses, amide-capped); Lck-SH2 present
Method: The library was prepared via parallel synthesis using a previously described disulfide-linked Tentagel resin (see “Synthesis of Peptide Library” below). Following solid phase synthesis of the primary sequence, the side chain amine of the Dap or Dab residue was selectively deprotected and subsequently modified with the appropriate activated forms of 5, 6, and 7. The remaining protecting groups on the peptide were then removed with trifluoroacetic acid (TFA), the peptide-resin extensively washed to eliminate the last traces of TFA, and the peptide cleaved from the resin with assay buffer (which contained dithiothreitol) and purified by HPLC. The fluorescent response of the individual library members to Src catalysis in the presence of Lck SH2 was subsequently examined in detail (see “Assay of Library” below).
as §1

Src [3] = target: T1, Src; test: Src kinase-catalyzed phosphorylation of self-reporting fluorophore-peptides, fluorescence change (no detection module); conditions: for Fluorescence change (fold): upon phosphorylation; for Phosphorylation-induced fluorescence change: Src, no detection module
Method: Tyrosine kinase-catalyzed phosphorylation was initiated by addition of 15 μL of 10 mM ATP to the following solution: 3 μL 0.1 mM peptide stock solution, 3.8 μL 200 mM MgCl2, 1.5 μL 100 mM MnCl2, 23.2 μL H2O, 6 μL 50 mM DTT, 15 μL 0.1 mg/mL BSA, and 7.5 μL 0.03 μM Src in 75 μL Tris buffer solution (pH 7.2).

PTP1B = target: T3, PTP1B (Homo sapiens, UniProt P18031); test: Effect of PTP1B on the fluorescence change; assay type: biochemical; conditions: peptide substrate 4 μM; GST-Lck-SH2 22 μM
T3 construct: purchased Invitrogen
T3 sequence (P18031 1-435): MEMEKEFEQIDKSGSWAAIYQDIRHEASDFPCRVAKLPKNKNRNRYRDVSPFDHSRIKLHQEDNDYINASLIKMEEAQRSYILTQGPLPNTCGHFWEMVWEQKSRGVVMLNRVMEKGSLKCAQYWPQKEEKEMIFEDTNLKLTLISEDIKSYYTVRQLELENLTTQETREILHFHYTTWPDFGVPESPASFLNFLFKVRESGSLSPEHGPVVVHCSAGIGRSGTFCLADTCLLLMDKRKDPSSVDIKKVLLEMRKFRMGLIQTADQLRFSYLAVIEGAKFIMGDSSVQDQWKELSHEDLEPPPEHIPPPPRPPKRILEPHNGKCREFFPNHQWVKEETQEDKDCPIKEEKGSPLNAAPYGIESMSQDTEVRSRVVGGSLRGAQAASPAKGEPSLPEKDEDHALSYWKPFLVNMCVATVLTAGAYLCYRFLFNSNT

Lck SH2 domain = target: T4, Lck SH2 domain (Homo sapiens, UniProt P06239); test: Effect of competing Lck-SH2 domain ligand on the fluorescence change; assay type: binding; conditions: ligand 50 μM, peptide substrate 4 μM, GST-Lck-SH2 22 μM
T4 construct: made in house; host or cells: E. coli
Text: As is evident from Table 1, the dapoxyl fluorophore positioned off the +3 and +4 sites on the peptide substrate (Dap-5 and Dab-5) produce the largest changes in fluorescent behavior. Two peptides (13 and 14, FIG. 4) were examined in greater detail. Both peptides were resynthesized on the Rink resin and purified by HPLC. In addition, the phosphotyrosine version of 13 was enzymatically prepared. […] If the SH2 domain is responsible for the fluorescence change induced by Src kinase-catalyzed phosphorylation, then the Lck SH2 domain concentration should influence the observed fluorescence response. […] The reactions were initiated by the addition of ATP. When only buffer was added to “initiate” the reaction (i.e. no ATP), the fluorescence of the mixture remained unperturbed. Furthermore, in the absence of Lck SH2 domain, ATP addition to initiate the reaction furnished an exceedingly modest change in fluorescence intensity (<5%). By contrast, increasing concentrations of SH2 domain produced increasing enhancements in fluorescence intensity. Above an Lck SH2 concentration of 16 μM, the change in fluorescence intensity began to level off, which is in keeping with the notion that the interaction between phosphopeptide and Lck SH2 domain was approaching saturation. […]

[4] = fluorophore on Dab at position Y−2, λex/λem (nm) (first pair listed for the fluorophore)
[5] = fluorophore on Dap at position Y+3, λex/λem (nm) (first pair listed for the fluorophore)

T2 sequence (P06239 127-224 limits assumed): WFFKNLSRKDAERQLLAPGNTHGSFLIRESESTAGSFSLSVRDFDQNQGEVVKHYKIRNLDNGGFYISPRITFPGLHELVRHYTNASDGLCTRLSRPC
T4 sequence (P06239 127-224 limits assumed): as above

## Ac-Glu-Glu-Glu-Ile-Tyr-Gly-Glu-Ile-Dab(dapoxyl)-Ala (Ac-EEEIYGEI[Dab](dapoxyl)A-NH2; not fully specified; printed as Ac-Glu-Glu-Glu-Ile-Tyr-Gly-Glu-Ile-Dab(dapoxyl)-Ala) [Peptide 14]
Src [1]
  Km: 4.8 ± 0.8 µM
  Vmax: 1.5 ± 0.1 µmol/min/mg
GST-Lck-SH2; peptide 8 μM, Lck-SH2 0.2 μM, 15 nM Src
  Fluorescence Increase: 1.07 fold change
GST-Lck-SH2; peptide 8 μM, Lck-SH2 2 μM, 15 nM Src
  Fluorescence Increase: 1.70 fold change
GST-Lck-SH2; peptide 8 μM, Lck-SH2 4 μM, 15 nM Src
  Fluorescence Increase: 2.32 fold change
GST-Lck-SH2; peptide 8 μM, Lck-SH2 8 μM, 15 nM Src
  Fluorescence Increase: 4.31 fold change
GST-Lck-SH2; peptide 8 μM, Lck-SH2 12 μM, 15 nM Src
  Fluorescence Increase: 5.34 fold change
GST-Lck-SH2; peptide 8 μM, Lck-SH2 16 μM, 15 nM Src
  Fluorescence Increase: 6.20 fold change
GST-Lck-SH2; peptide 8 μM, Lck-SH2 20 μM, 15 nM Src
  Fluorescence Increase: 6.85 fold change
GST-Lck-SH2; peptide 8 μM, Lck-SH2 26 μM, 15 nM Src
  Fluorescence Increase: 7.32 fold change
GST-Lck-SH2; peptide 8 μM, Lck-SH2 32 μM, 15 nM Src
  Fluorescence Increase: 7.20 fold change
Src [2]
  Fold change in fluorescence intensity in the Src kinase-catalyzed phosphorylation: 7.2 fold

## NBD (Ac-EEEIY[Dap](NBD)EIEA-NH2; SMILES CC[C@H](C)[C@H](NC(=O)[C@H](CCC(=O)O)NC(=O)[C@H](CNc1ccc([N+](=O)[O-])c2nonc12)NC(=O)[C@H](Cc1ccc(O)cc1)NC(=O)[C@@H](NC(=O)[C@H](CCC(=O)O)NC(=O)[C@H](CCC(=O)O)NC(=O)[C@H](CCC(=O)O)NC(C)=O)[C@@H](C)CC)C(=O)N[C@@H](CCC(=O)O)C(=O)N[C@@H](C)C(N)=O)
Src [3]; [4]
  Fluorescence change (fold): 1.7 fold
Src [3]; [5]
  Fluorescence change (fold): 1.25 fold

## 27: corresponding peptide containing Cascade Yellow positioned at Y+3, SEQ ID NO:16 (EEEIYGE[Dap](Cascade Yellow)EA) [Peptide 27]
Src [3]
  Phosphorylation-induced fluorescence change: smaller fluorescence response

## CC[C@H](C)[C@H](NC(=O)[C@H](CCC(=O)O)NC(=O)[C@H](CNc1ccc([N+](=O)[O-])c2nonc12)NC(=O)[C@H](Cc1ccc(O)cc1)NC(=O)[C@@H](NC(=O)[C@H](CCC(=O)O)NC(=O)[C@H](CCC(=O)O)NC(=O)[C@H](CCC(=O)O)NC(C)=O)[C@@H](C)CC)C(=O)N[C@@H](CCC(=O)O)C(=O)N[C@@H](C)C(N)=O [Peptide 13, Ac-Glu-Glu-Glu-Ile-Tyr-Dap(NBD)-Glu-Ile-Glu-Ala] (Ac-EEEIY[Dap](NBD)EIEA-NH2)
PTP1B
  fluorescence change when PTP1B is added at the same time as ATP: blocked the fluorescence change
  fluorescence intensity when PTP1B is added after completion of the Src kinase-catalyzed reaction: reduced the fluorescence intensity to the starting value
GST-Lck-SH2; absence of Lck SH2 domain, peptide 16 μM
  change in fluorescence intensity on ATP addition: < 5%
GST-Lck-SH2; peptide 16 μM, Lck-SH2 0 μM, 30 nM Src
  Fluorescence Increase: 1.07 fold change
GST-Lck-SH2; peptide 16 μM, Lck-SH2 4 μM, 30 nM Src
  Fluorescence Increase: 1.24 fold change
GST-Lck-SH2; peptide 16 μM, Lck-SH2 8 μM, 30 nM Src
  Fluorescence Increase: 1.33 fold change
GST-Lck-SH2; peptide 16 μM, Lck-SH2 12 μM, 30 nM Src
  Fluorescence Increase: 1.41 fold change
GST-Lck-SH2; peptide 16 μM, Lck-SH2 16 μM, 30 nM Src
  Fluorescence Increase: 1.52 fold change
GST-Lck-SH2; peptide 16 μM, Lck-SH2 20 μM, 30 nM Src
  Fluorescence Increase: 1.56 fold change
GST-Lck-SH2; peptide 16 μM, Lck-SH2 26 μM, 30 nM Src
  Fluorescence Increase: 1.61 fold change
GST-Lck-SH2; peptide 16 μM, Lck-SH2 32 μM, 30 nM Src
  Fluorescence Increase: 1.59 fold change

## Cascade Blue ™
Src [3]; [4]
  Fluorescence change (fold): 2.1 fold
Src [3]; fluorophore on Dap at position Y+3, λex 379 nm, λem 422 nm
  Fluorescence change (fold): 1.7 fold
Src [3]; [5]
  Fluorescence change (fold): 1.7 fold

## Dansyl
Src [3]; [4]
  Fluorescence change (fold): 1.0 fold
Src [3]; [5]
  Fluorescence change (fold): 1.0 fold

## Ac-pTyr-Glu-Glu-Ile-Glu-amide (Ac-[pY]EEIE-NH2; SMILES CC[C@H](C)[C@H](NC(=O)[C@H](CCC(=O)O)NC(=O)[C@H](CCC(=O)O)NC(=O)[C@H](Cc1ccc(OP(=O)(O)O)cc1)NC(C)=O)C(=O)N[C@@H](CCC(=O)O)C(N)=O)
Lck SH2 domain
  fluorescence change of the Src reaction in presence of known Lck SH2 domain ligand: no fluorescence change was observed
Lck SH2 domain; listed as Ac-pTyr-Glu-Glu-Ile-Glu-OH
  fluorescence change of the Src reaction in presence of known Lck SH2 domain ligand: no fluorescence change

## Sensor 26: Cascade Yellow-containing sensor, fluorophore on Dab at Y−2, SEQ ID NO:15 (EE[Dab](Cascade Yellow)IYGEIEA)
Src [3]
  Phosphorylation-induced fluorescence change: 2.7 fold

## Cascade Yellow (EE[Dab](Cascade Yellow)IYGEIEA)
Src [3]; [4]
  Fluorescence change (fold): 2.7 fold
Src [3]; [5]
  Fluorescence change (fold): 1.45 fold

## BODIPY FL
Src [3]; [5]
  Fluorescence change (fold): 1.06 fold
